Laboratory results from patent US11066655B2, “RNA polymerase, methods of purification and methods of use” (President and Fellows of Harvard College, priority 2013, dated 2021).

B1: Syn5 RNAP: single subunit DNA-dependent RNA polymerase from marine cyanophage Syn5, amino acid sequence SEQ ID NO:23 (protein)
chain: MSFDLIARQLQRETEAAELARKRLQDARREANERSYASSNIESRKAIATFLDPIAQRIGERLFTLRRGTGAVDAAEVYKHLKNADHHHLALITMKTALDVLGKDPEPQIQQLTTAIGRNIQLELRLTYYAEENPELYKQASRFFHAGTGTRQKATVIKLKFNREGIEWDQWSRVTCHKVGQWLMLAMADVTGWIERATDRTSGGRKTKTRICYSREFLQHRDTILAAAEQLAFCQWPMLCPPIEWSNDHNGGYLSEQIRRVNPLIRKTGPLGTRKQGDIPLAMLNNLQGQAYKVNPEVLDIANHCYESNVTVGKFIRHAPLPVPPSPGEDCTEDQLTAYKRARREAEDFNAQISQKNWRTTEVMYVARKYADEASFWMPASFDYRGRVYFLNTALNPQGTDFDKALLYFAEEGPVNEWWLSFHVATTYGLDKETMVNRVQWARDNHELIDRIASDPVRHTEWHDADEPWCFLAACLEYKACVIDGTKQTSGLPIGIDATCSGLQHLAAMTRCGRTAALVNVTPTDKPADAYKTVAQASLKHLPKEQHEWITRKVTKRPVMCTPYGVTMSSARGYIRDQLVKDGHKEDLRSPGVLNGIVKAIFNEAIPEVIPGPVQVMAWLKRSAGQIIDRGDSTITWTTPSGFEVVQDLKKSKTYEVKTRIMGGARIKLQVGDGFTDEPDRDHHKSALAPNVVHSNDASLLHLTFAFWDKPFTVIHDCVLGRSCDMDQMGSDIRLHFAEMYKADVMQDWADQVGVELPVDLIKNTLDIDSVNQSLYFFS
modifications: Amino acid sequence of a cyanophage Syn5 RNAP

Key:
[1] = test system: DNA templates S5P-tDNAR or T7P-tDNAR; assay: Synthesis of tRNA^Arg at preparative scale, sequencing gel; type: biochemical; conditions: 200 µl reaction, 37° C.
Experimental: FIGS. 11A-11B depict synthesis of tRNA^Arg by Syn5 and T7 RNA polymerase. A) Synthesis of tRNA^Arg at analytical scale by various amounts of Syn5 and T7 RNA polymerase. Using radioactively labeled CTP, the tRNA^Arg and N+1 product (as marked) produced by 22, 67, 200 nM Syn5 and T7 RNA polymerase at 37° C. are shown. […] The DNA encoding E. coli tRNA^ArgACG is directly downstream of a Syn5 or T7 promoter for the cognate RNA polymerase to synthesize run-off tRNA transcript. B) Synthesis of tRNA^Arg at preparative scale by Syn5 and T7 RNA polymerase. The sequencing gel is showing the analysis of the total RNA products by Syn5 and T7 RNAP at 37° C. in a 200 µl reaction. […]
For the results shown in FIG. 11A, reaction mixtures (10 μl) containing 40 mM Tris-HCl pH 8.0, 6 mM MgCl2, 2 mM spermidine, 10 mM DTT, 200 µM[…]P, GTP and UTP, 10 µM [[…]-^32P]CTP, 1.5 U/µl RNaseOUT™ recombinant ribonuclease inhibitor, 0.5 μM DNA templates S5P-tDNAR or T7P-tDNAR, and various amount of Syn5 or T7 RNAP were incubated at 37° C. for 30 min before adding of one unit of DNase I to each reaction mixture and an additional incubation of 15 min at 37° C. […] After electrophoresis, gels were dried and analyzed using a Fuji BAS 1000 Bioimaging Analyzer. […] RNA quantification was based on OD260 measurement using NANOPHOTOMETER (IMPLEN). […]

[2] = test system: E. coli total aminoacyl-tRNA synthetases; assay: tRNA aminoacylation assay of RNAP products; type: biochemical; conditions: for desired (functional) tRNA in total RNA products: without gel extraction, maximum charging at 30 min
Experimental: FIGS. 11A-11B depict synthesis of tRNA^Arg by Syn5 and T7 RNA polymerase. A) Synthesis of tRNA^Arg at analytical scale by various amounts of Syn5 and T7 RNA polymerase. Using radioactively labeled CTP, the tRNA^Arg and N+1 product (as marked) produced by 22, 67, 200 nM Syn5 and T7 RNA polymerase at 37° C. are shown. […] The DNA encoding E. coli tRNA^ArgACG is directly downstream of a Syn5 or T7 promoter for the cognate RNA polymerase to synthesize run-off tRNA transcript. B) Synthesis of tRNA^Arg at preparative scale by Syn5 and T7 RNA polymerase. The sequencing gel is showing the analysis of the total RNA products by Syn5 and T7 RNAP at 37° C. in a 200 µl reaction. RNAs were purified by either ZYMO RNA clean kit or phenol/chloroform extraction followed by ethanol precipitation (P/C/E), as noted on top of the gel. The native tRNA^Arg (with modifications) overexpressed and purified from E. coli cells was used as a size marker. The two major bands in the total RNAs are tRNA^Arg and N+1 product as marked.
tRNA Aminoacylation Assay tRNA aminoacylation assay was performed as described previously (Tan et al.). A reaction containing 100 mM Tris-HCl, pH 7.5, 30 mM KCl, 12 mM MgCl2, 0.5 mM DTT, 4 mM ATP, 0.2 […]RNA (purified native E. coli tRNA^Arg (Zhu et al. (2012)), or purified tRNA^Arg transcripts from Syn5 or T7 RNAP reaction using RNA Clean & Concentrator™-5 kit), 15 µM [^3H] arginine (15 Ci/mmol), and 4 µM E. coli total aminoacyl-tRNA synthetases was incubated at 37° C. for the indicated time period. 5 µl reaction mixtures were spotted onto Whatman DE(81) filters and reactions stopped by 10% TCA solution containing 0.5 mM arginine. The filters were washed twice with 10% TCA and once with ethanol, and then dried. The amount of amino acid charged to tRNA was determined by measuring radioactivity remained on the filters.

| Molecule | N+1 products in total products [1] | desired (functional) tRNA in total RNA products [2] [%] | amino acid charging activity of products ([2]; [3H] arginine, 37° C.) |
| --- | --- | --- | --- |
| T7 RNAP: RNA polymerase encoded by bacteriophage T7, from New England Biolabs [reference compound] | more than 50% | 15 |  |
| B1 | negligible | 40 | much higher than that obtained from the T7 RNAP reaction |
